Data on three molecules can be found in publication PMC3060825, “Structure and Function of the First Full-Length Murein Peptide Ligase (Mpl) Cell Wall Recycling Protein” (PLoS ONE, 2011).

Data set [1] addresses murein peptide ligase (Mpl) from Psychrobacter arcticus 273-4 (Psychrobacter arcticus 273-4). As to the kind of experiment: SEC; elution of the same Superdex 200 run (refractive index trace) compared with the BioRad gel filtration standard (158, 44 and 17 kDa).
The target is the same in data set [2]. As to the kind of experiment: SEC-MALS; SEC/SLS: 1x30 cm Superdex 200 coupled with miniDAWN static light scattering and Optilab differential refractive index detectors; 20 mM Tris-HCl pH 8.0, 150 mM sodium chloride, 0.02% sodium azide; molecular weight by ASTRA 5.1.5.
Substrate in data set [3]: CC(=O)N[C@H]1[C@@H](OP(=O)(O)OP(=O)(O)OC[C@H]2O[C@@H](n3ccc(=O)[nH]c3=O)[C@H](O)[C@@H]2O)O[C@H](CO)[C@@H](O)[C@@H]1O[C@H](C)C(=O)O
The experiment in a line: purified protein. In kind it is biochemical, Psychrobacter arcticus. To be noted: 5 mM ATP, 0.25 mM L-Ala-γ-D-Glu-meso-A2pm, 5 mM MgCl2, pH 8.4, 30 min, labelled compound.

Substrate in data set [4]: Nc1ncnc2c1ncn2[C@@H]1O[C@H](COP(=O)(O)OP(=O)(O)OP(=O)(O)O)[C@@H](O)[C@H]1O
As to the kind of experiment: purified protein. It counts as biochemical, Psychrobacter arcticus. Particulars: 0.4 mM UDP-MurNAc, 0.25 mM L-Ala-γ-D-Glu-meso-A2pm, 5 mM MgCl2, pH 8.4, 30 min.

Data set [5] concerns the molecule itself. As to the kind of experiment: SEC; 100 µl of 1.3 mg of EcMpl on Superdex 200 10/300 GL; 20 mM potassium phosphate pH 7.4, 0.15 mM NaCl, 0.01% 2-mercaptoethanol; 0.5 ml/min, detection at 280 nm.

For “murein peptide ligase (Mpl) from Psychrobacter arcticus 273-4 (enzyme)”, the stoichiometry N turned out to be 4 in data set [1] and 2.09 in data set [2].

B1: PaMpl (Psychrobacter arcticus 273-4) (protein)
chain: MHIHILGICGTFMGSLALLARALGHTVTGSDANIYPPMSTQLEQAGVTIEEGYLIAHLQPAPDLVVVGNAMKRGMDVIEYMLDTGLRYTSGPQFLSEQVLQSRHVIAVAGTHGKTTTTTMLAWILHYAGIDAGFLIGGVPLVNTTDTNLQQVFAHSSYLGTEKDDSDNSVNTGYFVIEADEYDSAFFDKRSKFVHYRPRTAILNNLEFDHADIFADLDAIQTQFHHMVRMIPSTGKIIMPAATISLEDTLAKGVWTPIWRTSVIDSTISSVRREDSPLENSQAENSSDWQAELISADGSQFTVSFNDNKEATALVNWSMSGLHNVNNALVAIAAAYNIGVSVKTACAALSAFAGIKRRMELIGDVNDILVFDDFAHHPTAITTTLDGAKKKLADRRLWAIIEPRSNTMKMGIHQDSLAQSATLADHTLWYEPTGLEWGLKEVIDNATIANPSIGSQQVLSSVDDIIKHICTHAKAGDAIVIMSNGGFEGIHQRLLTALGNIVAIL
notes: full length, 505 residues; N-terminal His6 tag (…) kept for kinetics; E. coli MLD2502 (delta mpl); 57,187 Da with tag; dimer in solution by light scattering
For B1, in data set [3], the Km was found to be 1000 ± 130 µM, the kcat amounted to 4.33 ± 0.333 s⁻¹ and the kcat/Km worked out at 4330 ± 650 M⁻¹ s⁻¹. For the same molecule, in data set [4], the Km stood at 110 ± 50 µM, the kcat amounted to 4.33 ± 0.333 s⁻¹ and the kcat/Km worked out at 40000 ± 18300 M⁻¹ s⁻¹.

B2: Mpl from Escherichia coli (enzyme, UniProt P37773 1-457, looked up)
chain: MRIHILGICGTFMGGLAMLARQLGHEVTGSDANVYPPMSTLLEKQGIELIQGYDASQLEPQPDLVIIGNAMTRGNPCVEAVLEKNIPYMSGPQWLHDFVLRDRWVLAVAGTHGKTTTAGMATWILEQCGYKPGFVIGGVPGNFEVSAHLGESDFFVIEADEYDCAFFDKRSKFVHYCPRTLILNNLEFDHADIFDDLKAIQKQFHHLVRIVPGQGRIIWPENDINLKQTMAMGCWSEQELVGEQGHWQAKKLTTDASEWEVLLDGEKVGEVKWSLVGEHNMHNGLMAIAAARHVGVAPADAANALGSFINARRRLELRGEANGVTVYDDFAHHPTAILATLAALRGKVGGTARIIAVLEPRSNTMKMGICKDDLAPSLGRADEVFLLQPAHIPWQVAEVAEACVQPAHWSGDVDTLADMVVKTAQPGDHILVMSNGGFGGIHQKLLDGLAKKAEAAQ
notes: Mpl (murein peptide ligase, UDP-MurNAc:L-Ala-gamma-D-Glu-meso-A2pm ligase), Escherichia coli; also called EcMpl; E. coli ortholog
For B2, in data set [5], the “stoichiometry N” value stood at 2.
